Source: article PMC8125067

Target: T1, endogenous IRF3 of HEK293T cells (human (endogenous in HEK293T)), Q14653
T1 chain: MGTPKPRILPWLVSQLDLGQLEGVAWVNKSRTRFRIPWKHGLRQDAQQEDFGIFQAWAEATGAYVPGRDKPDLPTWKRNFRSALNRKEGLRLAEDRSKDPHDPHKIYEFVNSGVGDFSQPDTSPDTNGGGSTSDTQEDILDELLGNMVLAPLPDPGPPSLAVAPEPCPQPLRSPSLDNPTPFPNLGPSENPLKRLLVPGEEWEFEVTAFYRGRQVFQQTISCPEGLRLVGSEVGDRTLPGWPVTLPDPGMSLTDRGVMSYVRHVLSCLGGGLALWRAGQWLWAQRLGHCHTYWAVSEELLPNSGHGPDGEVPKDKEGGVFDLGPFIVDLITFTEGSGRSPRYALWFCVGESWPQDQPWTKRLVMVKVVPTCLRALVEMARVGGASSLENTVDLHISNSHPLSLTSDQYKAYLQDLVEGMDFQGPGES
Assay: native gel or EMSA; IRF3 dimer gel: lysate of HEK293T transfected 36 h with or without MDA5 and VP3; native PAGE, 25 mM Tris-HCl, 192 mM glycine, pH 8.4, 1% deoxycholate in the cathode chamber; blot with anti-IRF3
Details: remark: other sources report otherwise

B1: endogenous IRF3 of HEK293T cells, Q14653 1-427 (natural protein)
chain: T1 chain
stoichiometry N: 2
